This is an account of results in patent publication US20210381026A1.

The target of the assay is GFP [GFP: P42212]. Put plainly: sandwich cD-IPCR: GFP in buffer captured by anti-GFP pAb on plate, bound cDNA display quantified by qPCR (ΔCt). On the technique in general: Real-time PCR tracks product formation cycle by cycle.

cDNA display presenting anti-GFP VHH (LaG-16), sequence (VHH): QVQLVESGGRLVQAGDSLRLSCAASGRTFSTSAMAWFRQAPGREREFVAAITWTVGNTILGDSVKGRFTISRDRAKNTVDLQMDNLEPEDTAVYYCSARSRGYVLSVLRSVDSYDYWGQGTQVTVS

For the substance “cDNA display presenting anti-GFP VHH (LaG-16)”, the lowest detected GFP concentration (sandwich cD-IPCR) was 10 ng/mL.
